Key:
[1] = target: T1, IRTA2 extracellular domain-Fc fusion protein (human, UniProt Q96RD9 16-851); assay: equilibrium ELISA (Friguet)
T1 construct: extracellular domain; also called IRTA2-Fc; IRTA2-HFc; not shown: human IgG1 hinge and Fc
T1 sequence (looked up): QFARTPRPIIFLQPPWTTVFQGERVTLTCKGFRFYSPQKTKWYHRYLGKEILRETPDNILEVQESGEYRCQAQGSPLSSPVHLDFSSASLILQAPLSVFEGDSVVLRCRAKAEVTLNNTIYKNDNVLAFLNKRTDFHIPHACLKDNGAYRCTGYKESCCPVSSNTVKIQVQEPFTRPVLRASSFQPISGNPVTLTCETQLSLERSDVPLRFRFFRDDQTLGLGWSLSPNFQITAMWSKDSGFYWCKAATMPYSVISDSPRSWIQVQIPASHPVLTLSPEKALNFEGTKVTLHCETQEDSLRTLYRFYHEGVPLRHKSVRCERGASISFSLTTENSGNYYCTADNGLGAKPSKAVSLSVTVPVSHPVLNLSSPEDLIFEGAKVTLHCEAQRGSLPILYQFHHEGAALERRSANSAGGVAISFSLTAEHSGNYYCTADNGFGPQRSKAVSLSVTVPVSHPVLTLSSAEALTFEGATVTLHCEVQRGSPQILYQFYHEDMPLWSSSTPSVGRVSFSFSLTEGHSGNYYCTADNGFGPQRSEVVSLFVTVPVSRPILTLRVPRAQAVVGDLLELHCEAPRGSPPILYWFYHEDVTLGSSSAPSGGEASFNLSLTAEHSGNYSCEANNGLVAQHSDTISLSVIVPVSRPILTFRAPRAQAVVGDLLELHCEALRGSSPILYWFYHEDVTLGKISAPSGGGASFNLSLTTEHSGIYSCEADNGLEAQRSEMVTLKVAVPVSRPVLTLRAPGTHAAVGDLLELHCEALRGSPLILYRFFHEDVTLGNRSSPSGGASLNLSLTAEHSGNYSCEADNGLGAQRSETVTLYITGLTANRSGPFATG
Description: ELISA. In a typical indirect ELISA for the screening of hybridomas, microtiter plates (MaxiSorp; Nalge Nunc, Rochester, N.Y.) were coated with 100 ng/50 μl/well of goat anti-human IgG in phosphate buffered saline (PBS) for 2 hours at room temperature. Next, 50 ng/100 μl/well of IRTA2-Fc in blocking buffer (25% DMEM, 5% FBS, 25 mM HEPES, 0.5% bovine serum albumin, 0.1% sodium azide in PBS) was added to each well and incubated for 2 hours at room temperature. After washing with PBS containing 0.05% Tween 20, 50 μl of the hybridoma supernatants were added and incubated for 2 hours at room temperature. After washing, the bound MAbs were detected by a 2-hour incubation with horseradish peroxidase (HRP)-labeled goat anti-mouse IgG (Jackson ImmunoResearch, Grove, Pa.) followed by tetramethylbenzidine (TMB) substrate kit (Pierce, Rockford, Ill.). In some experiments, other IRTA-Fc fusion proteins were used instead of IRTA2-Fc.
Affinity Determination. Affinities (dissociation constant, Kd) of the anti-IRTA2 MAbs to IRTA2-Fc were determined by ELISA as previously described (Friguet et al., J Immunol Methods 77:305-19, 1985). Briefly, each MAb was incubated with various concentrations of IRTA2-Fc at room temperature for 20 hours to reach equilibrium; then the amount of MAb that remains unbound at equilibrium was measured by the indirect ELISA as described above.

[2] = target: T2, IRTA5, full-length, on transfected 293T cells (human, UniProt Q96LA6 17-429); assay: FACS on transfected 293T (summary with IRTA-Fc ELISA, FIG. 2A and B)
T2 sequence: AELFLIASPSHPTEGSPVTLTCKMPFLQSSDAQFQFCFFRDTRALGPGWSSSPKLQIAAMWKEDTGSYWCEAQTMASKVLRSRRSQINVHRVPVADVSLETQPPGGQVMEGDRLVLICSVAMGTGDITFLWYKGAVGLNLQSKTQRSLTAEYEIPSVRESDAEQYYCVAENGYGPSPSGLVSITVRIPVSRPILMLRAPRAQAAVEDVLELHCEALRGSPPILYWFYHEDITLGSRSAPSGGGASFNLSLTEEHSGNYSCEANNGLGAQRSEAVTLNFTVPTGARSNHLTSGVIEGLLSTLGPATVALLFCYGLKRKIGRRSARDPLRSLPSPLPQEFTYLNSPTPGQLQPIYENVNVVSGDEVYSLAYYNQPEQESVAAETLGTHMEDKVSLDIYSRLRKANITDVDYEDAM
Description: FIGS. 2A-B are a bar graph and a set of plots showing the cross-reactivity of the anti-IRTA2 MAbs to other IRTA family members. FIG. 2A is a bar graph of the results from an ELISA of anti-IRTA2 MAbs to various Fc-fusion proteins. Each Fc-fusion protein indicated on the top of the column was captured on ELISA plates using secondary antibody (goat anti-human IgG). After washing, 100 ng/50 μl/well of MAbs were added, followed by HRP-labeled goat anti-mouse IgG and TMBZ substrate. The signals in ELISA were normalized for the amounts of each Fc-fusion protein on the plates using HRP-goat anti-human Fc. The controls are MAbs 9E10 (anti-myc tag, IgG1), BerH2 (anti-CD30, IgG1), T408 (anti-CD30, IgG2a), T420 (anti-CD30, IgG2b) and HRP-goat anti-human Fc (1/2400 dilution). […] Two days after transfection, the cells were harvested and incubated with 200 ng/100 μl of each MAb, followed by PE-conjugated goat anti-mouse IgG F(ab′)2. […] In the positive control panels, the MAbs cross-reactive to other IRTAs were used. They are F26 (anti-IRTA1 and anti-IRTA2, IgG2b), F109 (anti-IRTA3, IgG2b), F47 (anti-IRTA4, IgG2a), and F69 (anti-IRTA5, IgG2a). BerH2 (anti-CD30, IgG1) was also used. “+” indicates more than 1.5-fold than that of the control; “++” indicates more than 10-fold mean fluorescence intensity than that of the negative control.

B1: F25 (antibody, IgG2a, V domains shown)
VH: EVQLQQSGPELVKPGTSVKMSCKASGYSFTGYFMNWMMQNHGKSLEWIGRINLYNGDTFYNQKFKDKATLTVDKSSNTVHMEFRSLASEDSAVYYCASSLYYFDYWGQGTTFTVSS
VL: DIVMTQSHKFMSTSVGDRVNITCKASQDVGTNVAWYQQKPGQSPKLLIYWASTRQTGVPDRFTGSGSGTDFTLTISNVQSEDLSDYFCQQYSSYPLTFGAGTKLELKR
notes: mouse hybridoma MAb, IgG2a, kappa; also called MAb F25; biotin-MAb F25
- Kd [1]: 1.2 nM
- binding result [2]: no binding
